# Reference: the supplement of paper PMC10567573
# B1: FBXO39 (parent)
# chain: PSRVHASEVESAVWYVKKFGRYLE
# Variants of: B1
# Experiment: protein stability index of a GFP-peptide fusion (GPS, HEK-293T) (PSI 1-6); higher = more stable
# Details: c terminus: a fixed tail appended
# 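Further: lentivirally expressed fusions sorted by FACS into six bins by GFP to DsRed ratio, PSI derived from sequencing read proportions per bin multiplied by bin number.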
row,Variant,protein stability index
1,PSRVHASYVESAVWYVKKFGRYLE,3.1
2,PSRVHASVVESAVWYVKKFGRYLE,1.46
3,PSRVHASWVESAVWYVKKFGRYLE,1.42
4,PSRVHASEVISAVWYVKKFGRYLE,1.85
5,PSRVHASEVQSAVWYVKKFGRYLE,2.17
6,PSRVHASEVHSAVWYVKKFGRYLE,1.65
7,PSRVHASEVDSAVWYVKKFGRYLE,1.84
8,PSRVHASEVVSAVWYVKKFGRYLE,1.54
9,PSRVHASEVRSAVWYVKKFGRYLE,2.37
10,PSRVHASEVMSAVWYVKKFGRYLE,1.49
11,PSRVHASEVLSAVWYVKKFGRYLE,3.06
12,PSRVHASEVASAVWYVKKFGRYLE,1.64
13,PSRVHASEVFSAVWYVKKFGRYLE,2.31
14,PSRVHASEVPSAVWYVKKFGRYLE,2.04
15,PSRVHASEVNSAVWYVKKFGRYLE,1.66
16,PSRVHASEVCSAVWYVKKFGRYLE,1.99
17,PSRVHASEVSSAVWYVKKFGRYLE,2.51
18,PSRVHASEVGSAVWYVKKFGRYLE,1.41
19,PSRVHASEVTSAVWYVKKFGRYLE,2.69
20,PSRVHASEVYSAVWYVKKFGRYLE,2
21,PSRVHASEVKSAVWYVKKFGRYLE,2.21
22,PSRVHASEVESAVWYQKKFGRYLE,2.5
23,PSRVHASEVESAVWYCKKFGRYLE,2.65
24,PSRVHASEVESAVWYGKKFGRYLE,2.81

row,Variant,protein stability index
1,PSRVHASEVESAVWYFKKFGRYLE,1.83
2,PSRVHASEVESAVWYPKKFGRYLE,2.54
3,PSRVHASEVESAVWYRKKFGRYLE,3.17
4,PSRVHASEVESAVWYSKKFGRYLE,3.08
5,PSRVHASEVESAVWYLKKFGRYLE,1.87
6,PSRVHASEVESAVWYEKKFGRYLE,2.96
7,PSRVHASEVESAVWYDKKFGRYLE,3.18
8,PSRVHASEVESAVWYMKKFGRYLE,2.65
9,PSRVHASEVESAVWYHKKFGRYLE,3.32
10,PSRVHASEVESAVWYKKKFGRYLE,3.01
11,PSRVHASEVESAVWYTKKFGRYLE,2.43
12,PSRVHASEVESAVWYWKKFGRYLE,2.27
13,PSRVHASEVESAVWYIKKFGRYLE,1.72
14,PSRVHASEVESAVWYYKKFGRYLE,2.44
15,PSRVHASEVESAVWYAKKFGRYLE,2.4
16,PSRVHASEVESAVWYNKKFGRYLE,3.18
17,PSRVHASEVESAVRYVKKFGRYLE,2.58
18,PSRVHASEVESAVVYVKKFGRYLE,2.64
19,PSRVHASEVESAVYYVKKFGRYLE,2.18
20,PSRVHASEVESAVKYVKKFGRYLE,2.67
21,PSRVHASEVESAVPYVKKFGRYLE,2.96
22,PSRVHASEVESAVDYVKKFGRYLE,3.84
23,PSRVHASEVESAVSYVKKFGRYLE,3.22
24,PSRVHASEVESAVHYVKKFGRYLE,3.44

row,Variant,protein stability index
1,PSRVHASEVESAVQYVKKFGRYLE,2.87
2,PSRVHASEVESAVGYVKKFGRYLE,2.89
3,PSRVHASEVESAVTYVKKFGRYLE,3.68
4,PSRVHASEVESAVEYVKKFGRYLE,2.8
5,PSRVHASEVESAVIYVKKFGRYLE,2.38
6,PSRVHASEVESAVCYVKKFGRYLE,3.17
7,PSRVHASEVESAVMYVKKFGRYLE,3.3
8,PSRVHASEVESAVAYVKKFGRYLE,2.96
9,PSRVHASEVESAVLYVKKFGRYLE,2.32
10,PSRVHASEVESAVFYVKKFGRYLE,1.73
11,PSRVHASEVESAVNYVKKFGRYLE,3.68
12,PSRVHASESESAVWYVKKFGRYLE,2.62
13,PSRVHASEEESAVWYVKKFGRYLE,3.31
14,PSRVHASEQESAVWYVKKFGRYLE,2.35
15,PSRVHASEWESAVWYVKKFGRYLE,1.61
16,PSRVHASEAESAVWYVKKFGRYLE,2.09
17,PSRVHASEFESAVWYVKKFGRYLE,1.62
18,PSRVHASERESAVWYVKKFGRYLE,2.34
19,PSRVHASELESAVWYVKKFGRYLE,1.83
20,PSRVHASEIESAVWYVKKFGRYLE,2.01
21,PSRVHASEGESAVWYVKKFGRYLE,3.35
22,PSRVHASEKESAVWYVKKFGRYLE,1.92
23,PSRVHASEYESAVWYVKKFGRYLE,1.94
24,PSRVHASEHESAVWYVKKFGRYLE,2.29

row,Variant,protein stability index
1,PSRVHASETESAVWYVKKFGRYLE,2.33
2,PSRVHASEPESAVWYVKKFGRYLE,2.33
3,PSRVHASEMESAVWYVKKFGRYLE,1.92
4,PSRVHASEDESAVWYVKKFGRYLE,2.96
5,PSRVHASENESAVWYVKKFGRYLE,2.56
6,PSRVHASECESAVWYVKKFGRYLE,2.48
7,PSRVHASEVELAVWYVKKFGRYLE,1.99
8,PSRVHASEVEFAVWYVKKFGRYLE,1.74
9,PSRVHASEVETAVWYVKKFGRYLE,2.03
10,PSRVHASEVEMAVWYVKKFGRYLE,2.17
11,PSRVHASEVEPAVWYVKKFGRYLE,1.95
12,PSRVHASEVEAAVWYVKKFGRYLE,2.03
13,PSRVHASEVEGAVWYVKKFGRYLE,1.84
14,PSRVHASEVEKAVWYVKKFGRYLE,2.91
15,PSRVHASEVERAVWYVKKFGRYLE,2.07
16,PSRVHASEVEQAVWYVKKFGRYLE,1.64
17,PSRVHASEVEYAVWYVKKFGRYLE,2.07
18,PSRVHASEVEIAVWYVKKFGRYLE,2.1
19,PSRVHASEVECAVWYVKKFGRYLE,2.4
20,PSRVHASEVEVAVWYVKKFGRYLE,1.57
21,PSRVHASEVEHAVWYVKKFGRYLE,2.08
22,PSRVHASEVENAVWYVKKFGRYLE,1.97
23,PSRVHASEVEDAVWYVKKFGRYLE,2.49
24,PSRVHASEVEEAVWYVKKFGRYLE,2.57

row,Variant,protein stability index
1,PSRVHASEVEWAVWYVKKFGRYLE,1.54
2,PSRVHASEVESAVWYVVKFGRYLE,1.9
3,PSRVHASEVESAVWYVMKFGRYLE,1.91
4,PSRVHASEVESAVWYVCKFGRYLE,1.34
5,PSRVHASEVESAVWYVIKFGRYLE,2.39
6,PSRVHASEVESAVWYVSKFGRYLE,2.84
7,PSRVHASEVESAVWYVPKFGRYLE,1.89
8,PSRVHASEVESAVWYVTKFGRYLE,1.77
9,PSRVHASEVESAVWYVHKFGRYLE,2.1
10,PSRVHASEVESAVWYVEKFGRYLE,2.35
11,PSRVHASEVESAVWYVRKFGRYLE,3.25
12,PSRVHASEVESAVWYVWKFGRYLE,1.61
13,PSRVHASEVESAVWYVYKFGRYLE,2.66
14,PSRVHASEVESAVWYVNKFGRYLE,2.82
15,PSRVHASEVESAVWYVQKFGRYLE,2.27
16,PSRVHASEVESAVWYVGKFGRYLE,2.57
17,PSRVHASEVESAVWYVDKFGRYLE,2.25
18,PSRVHASEVESAVWYVAKFGRYLE,2
19,PSRVHASEVESAVWYVFKFGRYLE,1.87
20,PSRVHASEVESAVWYVLKFGRYLE,2.52
21,PSRVHASEVESAVWYVKLFGRYLE,1.79
22,PSRVHASEVESAVWYVKIFGRYLE,2.93
23,PSRVHASEVESAVWYVKFFGRYLE,1.95
24,PSRVHASEVESAVWYVKCFGRYLE,2.36

row,Variant,protein stability index
1,PSRVHASEVESAVWYVKHFGRYLE,1.89
2,PSRVHASEVESAVWYVKNFGRYLE,1.88
3,PSRVHASEVESAVWYVKAFGRYLE,1.65
4,PSRVHASEVESAVWYVKPFGRYLE,2.07
5,PSRVHASEVESAVWYVKMFGRYLE,1.82
6,PSRVHASEVESAVWYVKSFGRYLE,1.81
7,PSRVHASEVESAVWYVKEFGRYLE,2.37
8,PSRVHASEVESAVWYVKGFGRYLE,2.02
9,PSRVHASEVESAVWYVKQFGRYLE,1.75
10,PSRVHASEVESAVWYVKRFGRYLE,1.5
11,PSRVHASEVESAVWYVKDFGRYLE,2.33
12,PSRVHASEVESAGWYVKKFGRYLE,2.4
13,PSRVHASEVESAKWYVKKFGRYLE,1.78
14,PSRVHASEVESAFWYVKKFGRYLE,1.45
15,PSRVHASEVESALWYVKKFGRYLE,2.5
16,PSRVHASEVESAPWYVKKFGRYLE,3.59
17,PSRVHASEVESARWYVKKFGRYLE,2.17
18,PSRVHASEVESATWYVKKFGRYLE,1.96
19,PSRVHASEVESAEWYVKKFGRYLE,2.96
20,PSRVHASEVESAQWYVKKFGRYLE,2.73
21,PSRVHASEVESAYWYVKKFGRYLE,1.43
22,PSRVHASEVESAIWYVKKFGRYLE,1.61
23,PSRVHASEVESACWYVKKFGRYLE,1.95
24,PSRVHASEVESAHWYVKKFGRYLE,2.72

row,Variant,protein stability index
1,PSRVHASEVESAAWYVKKFGRYLE,2.44
2,PSRVHASEVESAWWYVKKFGRYLE,1.6
3,PSRVHASEVESANWYVKKFGRYLE,3.09
4,PSRVHASEVESADWYVKKFGRYLE,2.9
5,PSRVHASEVESAMWYVKKFGRYLE,2.13
6,PSRVHASEVESASWYVKKFGRYLE,2.57
7,PSRVHASEVESNVWYVKKFGRYLE,3.01
8,PSRVHASEVESYVWYVKKFGRYLE,1.65
9,PSRVHASEVESGVWYVKKFGRYLE,2.02
10,PSRVHASEVESKVWYVKKFGRYLE,2
11,PSRVHASEVESHVWYVKKFGRYLE,2.83
12,PSRVHASEVESLVWYVKKFGRYLE,2.08
13,PSRVHASEVESIVWYVKKFGRYLE,2.34
14,PSRVHASEVESEVWYVKKFGRYLE,3.02
15,PSRVHASEVESMVWYVKKFGRYLE,2.16
16,PSRVHASEVESPVWYVKKFGRYLE,2.25
17,PSRVHASEVESVVWYVKKFGRYLE,1.29
18,PSRVHASEVESRVWYVKKFGRYLE,2.54
19,PSRVHASEVESCVWYVKKFGRYLE,1.49
20,PSRVHASEVESTVWYVKKFGRYLE,2.08
21,PSRVHASEVESDVWYVKKFGRYLE,2.13
22,PSRVHASEVESSVWYVKKFGRYLE,2.18
23,PSRVHASEVESFVWYVKKFGRYLE,1.28
24,PSRVHASEVESQVWYVKKFGRYLE,3.27

row,Variant,protein stability index
1,PSRVHASEVESWVWYVKKFGRYLE,2.98
2,PSRVHASEVESAVWAVKKFGRYLE,2.07
3,PSRVHASEVESAVWTVKKFGRYLE,2.09
4,PSRVHASEVESAVWVVKKFGRYLE,1.41
5,PSRVHASEVESAVWIVKKFGRYLE,1.58
6,PSRVHASEVESAVWHVKKFGRYLE,2.65
7,PSRVHASEVESAVWMVKKFGRYLE,2.9
8,PSRVHASEVESAVWWVKKFGRYLE,1.15
9,PSRVHASEVESAVWKVKKFGRYLE,2.53
10,PSRVHASEVESAVWCVKKFGRYLE,1.74
11,PSRVHASEVESAVWPVKKFGRYLE,2.61
12,PSRVHASEVESAVWSVKKFGRYLE,2.4
13,PSRVHASEVESAVWRVKKFGRYLE,2.21
14,PSRVHASEVESAVWDVKKFGRYLE,3.73
15,PSRVHASEVESAVWFVKKFGRYLE,1.42
16,PSRVHASEVESAVWQVKKFGRYLE,2.74
17,PSRVHASEVESAVWLVKKFGRYLE,2.34
18,PSRVHASEVESAVWEVKKFGRYLE,2.45
19,PSRVHASEVESAVWNVKKFGRYLE,3.31
20,PSRVHASEVESAVWGVKKFGRYLE,2.84
